Results taken from PMC11920050 (Nature Communications, 2025).

Molecular target: the molecule itself
Assay: Western blot of cell lysate under non-denatured or denatured conditions

B1: Flag-EGFP-tagged SPESP1 (equatorial segment protein 1) expressed in CHO-K1 cells (natural protein, mouse, UniProt Q9D5A0 19-399, looked up)
chain: YPTITVLPDEEQNLNHYVHILQNLIMSVPTKEQDLGKKLSSSRTVDSAEPRSLASKVLLTPGLVSAQDVTPESDVLIRPVDETTNSRTRGFTLRRRRTQSTAFWSIRPNNISVVLRTEEPFIEKEPEPELESSRLPTEPEPELEPEPEPVAESRQMSEPEEELVTSTTPNKELTGTSRISSMATQPANTQATRITVTVKTTSTMDVSTDSEDVPQLSGQSEIPSAEDLPGRHSLNTRHEDILKKISNINAEIQQGLLGGNNSPEFKEFIKASREHLKRSLALAAAAEHKLEQMYGSNVFPEGRTSDPDNDMEMIINMLYNSRSKLSDYFNIKRVPSELREKASVVNAELRKILCVDQVEMQSLIKKLLSNNMKILNILNVP
modifications: O-GalNAc glycans (VVA-positive on blot); sites on this construct not stated
- stoichiometry N: 2
